The record followed here is the nanobody polyreactivity screen of Harvey et al. (2022).

This data set can be described thus: yeast display, Sf9 membrane polyspecificity reagent, FACS + sequencing; frameworks hold sequencing errors. In short, it runs like this: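 Genes from sorted yeast were amplified by colony PCR, read by MiSeq 2 × 250 sequencing and filtered on CDR length. These cells carried a synthetic nanobody library in Saccharomyces cerevisiae BJ5465 and were sorted by FACS into low and high (top ~1%) gates on anti-HA and streptavidin fluorescence. Polyreactivity is labelled according to the gate of origin.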
Take “QVQLLESGGGLVQSGGSLRVSCAASGSTFYAYSMGWYRQAPGKERELVAALDSGGSTYADSVKGRFPISRANAKHTVYLQMNSLKPEETAVYYCAADLITRSDYWWTGWIWEYDYWGQGTQVTVSS”: the “polyreactivity (PSR sort gate)” value is given as “low polyreactivity”.

Take “QVQLLESGVGLVQAGGSLRLSCAASGFTFGYYAMGWYRQAPGKETELVAAISSSDGSTYYADSVKGRFTISRDNAKNTVYLQMNSLKPEDTAVYYCAAEYYSAVYIDEYWYDYWGQGTQVTVSS”: the “polyreactivity (PSR sort gate)” value is “high polyreactivity”.

Turning to “QVQLLESGVGLVQAGGSLRLSCAASGNTFYHYAMGLYRQAPGKERELVAAISLSGGSTYYADSVKGRFTISRDNAKNTVYLQMNSLKPEDTAVYYCAADIFYYSSSYGYWGQGTQVTVST”, the “polyreactivity (PSR sort gate)” value is on record as “low polyreactivity”.

As for “QVQLLESGVGLVQAGGSLRLSCAASGTIFVDYAMGWYRQAPGKERQLVAAITSVGRTNYADSVKGRFTISRDNAKNTVYLQMNSLKPEDTAVYYCNKTRYTNYYTTTFDYWGQGTQVTVSS”, the “polyreactivity (PSR sort gate)” value is reported as “low polyreactivity”.

As to “QVQLLETGGGLVQAGRSHRLSCAASGLTFEDYAMGWYRQAPGKESELVAAITYSGGSTYYADSVKGRFTISRDNAKNSVYLQMMSLKPEDTAVSVCAAVSTLRPSWKRYYYWGQGNQVTVSS”, the “polyreactivity (PSR sort gate)” value is on record as “high polyreactivity”.

With “QVQLLETGRGLFQEGGSLRLSCAASGGTFGAYVMGWYRQAPGKERELVAAISRSGTRTYYADSVKRRFTISRDNEKNTVYLQMNWLKPEDTAVYYCNAVGYTNRYDDWGQGTQVTVSS”, the “polyreactivity (PSR sort gate)” value is “high polyreactivity”.

“QVQLLHSGGGKVQAGGRLRLSCAASGFIFCYYAMGWYRQAPGKERELVATISSGGNTYYADSVKGRFTISRDNAKNTVYLQMNSLKPEDTAVYYCAARWGVRPFYSTQYRYYYWGQGTQVTVSS”: the “polyreactivity (PSR sort gate)” value was “high polyreactivity”.

In the case of “QVQLLQTGGGLVQAGGSLRLSCAASGSNFVIYAMGWYIQAPWNERELVATISGGGRTNYADSLKGRFTISRDNAKNTVYLQMNSLKPEDTAVYYCNGDQYGSYLGVGFDYWGQGTQVTVSS”, the “polyreactivity (PSR sort gate)” value is reported as “high polyreactivity”.

Take “QVQLQDSCGGLVQAGGSLRLNCATSGTIFVLWYMGWYRQAPGKERELVATINHGANTYSADSVKGRFTINRDNGNSTVYLQMNSLQPEDTAVYYCAVYAIIVWGLGYWGQGTQVTVSS”: the “polyreactivity (PSR sort gate)” value is reported as “high polyreactivity”.

On to “QVQLQDSGGGLVQAGGSLRLNCATSGTIFVLWYMGWYRQAPGKERELVATINDGANTYYADSVKGRFTINRDNAYSTVYLKMNSLKPEDTAVYYCAVYAIIVWGLGYWGQGTQVTVSS”, for which the “polyreactivity (PSR sort gate)” value is given as “high polyreactivity”.

Regarding “QVQLQDSGGGLVQAGGSLRLSCAASGTISYRYRMGWYRQAPRKELELVAGISFGSITYYADSVKGRFTISRDNAKNTVYLQMNSLKPEDIAVYYCAVYQKSYRFFPYWGQGTQVTVSS”, the “polyreactivity (PSR sort gate)” value is “high polyreactivity”.

As for “QVQLQDSGGGLVQAGGSLRLSCAASGTIVTARFMGWYRQAPGKERELVATITDGGNTNHADSVKGRFTISRDNAKNTVYLQMNSLKPEDAAVYYCAAGEVDNDTLLYWGQGSQVTVSS”, the “polyreactivity (PSR sort gate)” value was “low polyreactivity”.

As for “QVQLQECGGGLVQAGRSLRLSCAASGTFSNSVKWLYCQAPGKEREFVATIGVGGSTNYADSVKGRFTISRDNAKYTVYLQMNSLKPEDTGVYHCAGYGAASNFHYDRGQGTQVTVSS”, the “polyreactivity (PSR sort gate)” value was “low polyreactivity”.

As to “QVQLQEGGGGLVQAGGSLRLSCAASGYIFNGDWMGWYRQAPGKERELVATINYGATTNYADSVKGRFTISRDNAKNTVYLQMNSLKPEDTAVYYCAVGGHGAQLYVYWGQGTQVTVSN”, the “polyreactivity (PSR sort gate)” value is on record as “high polyreactivity”.

Turning to “QVQLQEIVGGLVQAGGSLRLSCAASGNNFDADIMGLYRQAPGKERELVASVTDGGSTNYADSVKGRFTISRDNAKNSVYLQMNILKPEDTAVYYCAAIVYPDILTYFDYDYDYFYWGQGTQVTVGS”, the “polyreactivity (PSR sort gate)” value is reported as “low polyreactivity”.

Take “QVQLQERAAWCRRAGSLRLSCAASGNISDYYFMGWYRQAPGKERERVAAIAPGSKTYYADSVKGRFTISRDNAKNTVYLQMNSLKPEDTAVCFCAANSTQYTWFDYWGQGTQVPVSS”: the “polyreactivity (PSR sort gate)” value was “low polyreactivity”.

Turning to “QVQLQESASGLVQAGGSLRLSCAASGAIFPAYLMGWYRQAPGKERELVAGISYGSITYCADSVKGRFNISRDNAKNTVYLQMNSLKPEDTAVYYCAKDIGVRRRDYEDYEYWGQGTQVTVSS”, the “polyreactivity (PSR sort gate)” value is given as “low polyreactivity”.

Turning to “QVQLQESCGALVQAGGTLRLSCAASGSIFEQLDMGWNRQAPGKELEFVAAIGTGSTTYYADSVKGRFSISRDNAKNTVYLQRNSLKPEDTAVYYCAVTYSVYLPFRYWGQGTQVTVSS”, the “polyreactivity (PSR sort gate)” value is recorded as “high polyreactivity”.

Take “QVQLQESCGGLVQAGGSLCLSCAASGTIFFDGDMGWYRQAPGKEREFVAAINPGGSAYYADSVKGRLPLAAITHTVYLQMNSLKPEDTAVYYCAAKLFDVYGYYYWGQGTHVTVSS”: the “polyreactivity (PSR sort gate)” value was “low polyreactivity”.

As for “QVQLQESCGGLVQAGGSQRLSCAASAYIFYFQYMGWYRQAPGKEREFVAAISDGANTNYADSVKGRFTISRDNAKNTEYLQMNSLKPEDTAVYYCAVYADENFYYIYWGQGTEVTVSS”, the “polyreactivity (PSR sort gate)” value was “low polyreactivity”.

In the case of “QVQLQESDGGLVQAGGSLRLSCAASGNIFPTDRMGRYRQAPAKVLEFVATISHGGSTNYADSVKGRFTISRDNATNTVYLQMNSLKPEDTAVYYCAVWSLGRCRHYYWGQGTHVTVSS”, the “polyreactivity (PSR sort gate)” value is on record as “low polyreactivity”.
